This assay deals with SARS-CoV-2 Spike, WT (SARS-CoV-2, UniProt P0DTC2 14-1273). As to the kind of experiment: cell-based or functional assay.

B1: MR22950 antibody (antibody, V domains shown)
VH: QLQLQESGPGLVKPSEPLSLTCAVSGGFIGTNWWTWIRQPPGKGLEWIGRISGSVGSTSYNPSLKSRVTISRDTSKNQFSLNLNSLTAADTAVYYCAREGRLDTLDWGQGVLVIVSS
VL: QSVLTQPPSASEAARKSVTISCSGSSSNIGSYSVSWYQQFPGTPPKLLIYFNDQRASGVSDRFSGSKSGTSASLAISGLQTEDEADYYCAGWDDSLNGVLFGGGTRLTVLG
Consider B1, for which the “Neut50” value is 6 ng/mL.

The record behind these values is patent US20240327504A1 (MABLOC, published 2024).
